Reference: publication PMC10397247
Like-named read-outs stand apart in the source and are kept apart here.

Experiments:
Assay in all cases: two-hybrid library CCmax;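 also: natural log of median RNA to DNA barcode read ratio; higher means stronger binding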
[1] = biological target: T1, 4H130-AA; conditions: mean of both orientations
T1 chain: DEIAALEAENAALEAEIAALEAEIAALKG

[2] = biological target: T2, 4H1360-AA; conditions: mean of both orientations
T2 chain: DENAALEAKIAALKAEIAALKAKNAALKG

[3] = biological target: T3, 4H1558-AA; conditions: mean of both orientations
T3 chain: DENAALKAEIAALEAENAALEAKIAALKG

[4] = biological target: T4, 4H2621-AA; conditions: mean of both orientations
T4 chain: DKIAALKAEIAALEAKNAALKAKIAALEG

[5] = biological target: T5, 4H380-AA; conditions: mean of both orientations
T5 chain: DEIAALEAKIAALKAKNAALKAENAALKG

[6] = biological target: T6, 4H483-AA; conditions: mean of both orientations
T6 chain: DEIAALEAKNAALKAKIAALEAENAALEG

[7] = biological target: T7, 4H4001-AA; conditions: mean of both orientations
T7 chain: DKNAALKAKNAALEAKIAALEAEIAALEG

[8] = biological target: T8, 4H568-AA; conditions: mean of both orientations
T8 chain: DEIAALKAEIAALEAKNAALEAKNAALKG

[9] = biological target: T9, 4H687-AA; conditions: mean of both orientations
T9 chain: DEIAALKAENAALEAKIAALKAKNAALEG

[10] = biological target: T10, 4H883-AA
T10 chain: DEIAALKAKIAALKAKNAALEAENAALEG

[11] = biological target: T11, 4H2190-AA; conditions: mean of both orientations
T11 chain: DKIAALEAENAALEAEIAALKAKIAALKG

[12] = biological target: T12, 4H2343-AA; conditions: mean of both orientations
T12 chain: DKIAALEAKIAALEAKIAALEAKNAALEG

[13] = biological target: T13, 4H2354-AA; conditions: mean of both orientations
T13 chain: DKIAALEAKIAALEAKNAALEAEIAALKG

[14] = biological target: T14, 4H2393-AA; conditions: mean of both orientations
T14 chain: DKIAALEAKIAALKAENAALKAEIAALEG

[15] = biological target: T15, 4H2466-AA; conditions: mean of both orientations
T15 chain: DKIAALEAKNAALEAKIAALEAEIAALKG

[16] = biological target: T16, 4H2642-AA; conditions: mean of both orientations
T16 chain: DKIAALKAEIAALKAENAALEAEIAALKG

[17] = biological target: T17, 4H2754-AA; conditions: mean of both orientations
T17 chain: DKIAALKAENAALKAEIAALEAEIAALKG

[18] = biological target: T18, 4H335-AA; conditions: mean of both orientations
T18 chain: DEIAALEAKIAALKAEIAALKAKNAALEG

[19] = biological target: T19, 4H342-AA; conditions: mean of both orientations
T19 chain: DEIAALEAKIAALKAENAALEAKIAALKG

[20] = biological target: T20, 4H3655-AA; conditions: mean of both orientations
T20 chain: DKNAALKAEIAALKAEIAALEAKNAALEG

[21] = biological target: T21, 4H454-AA; conditions: mean of both orientations
T21 chain: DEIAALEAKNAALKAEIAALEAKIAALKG

[22] = biological target: T22, 4H48-AA; conditions: mean of both orientations
T22 chain: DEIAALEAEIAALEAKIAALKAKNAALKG

[23] = biological target: T23, 4H780-AA; conditions: mean of both orientations
T23 chain: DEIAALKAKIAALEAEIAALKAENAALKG

[24] = biological target: T24, 4H881-AA; conditions: mean of both orientations
T24 chain: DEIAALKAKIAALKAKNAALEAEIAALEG

[25] = biological target: T25, 4H1626-AA
T25 chain: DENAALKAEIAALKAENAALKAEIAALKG

[26] = biological target: T26, 4H1877-AA; conditions: mean of both orientations
T26 chain: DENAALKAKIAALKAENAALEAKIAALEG

[27] = biological target: T27, 4H2162-AA; conditions: mean of both orientations
T27 chain: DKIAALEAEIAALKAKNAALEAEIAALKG

[28] = biological target: T28, 4H2504-AA; conditions: mean of both orientations
T28 chain: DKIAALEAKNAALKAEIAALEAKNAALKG

[29] = biological target: T29, 4H3340-AA; conditions: mean of both orientations
T29 chain: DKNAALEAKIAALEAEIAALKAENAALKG

[30] = biological target: T30, 4H1351-AA; conditions: mean of both orientations
T30 chain: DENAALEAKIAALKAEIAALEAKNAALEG

[31] = biological target: T31, 4H1388-AA; conditions: mean of both orientations
T31 chain: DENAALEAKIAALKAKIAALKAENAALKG

[32] = biological target: T32, 4H1401-AA; conditions: mean of both orientations
T32 chain: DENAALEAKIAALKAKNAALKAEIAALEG

[33] = biological target: T33, 4H1478-AA; conditions: mean of both orientations
T33 chain: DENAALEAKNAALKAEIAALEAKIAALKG

[34] = biological target: T34, 4H1579-AA; conditions: mean of both orientations
T34 chain: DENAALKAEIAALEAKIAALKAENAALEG

[35] = biological target: T35, 4H1874-AA; conditions: mean of both orientations
T35 chain: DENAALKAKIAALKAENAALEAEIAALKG

[36] = biological target: T36, 4H3378-AA; conditions: mean of both orientations
T36 chain: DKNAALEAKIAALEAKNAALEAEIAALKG

An interaction score [1] of -0.874, an interaction score [2] of 0.702 and an interaction score [3] of -1.61 were found for DENAALEAEIAALEAKIAALEAKNAALKG [4H1064-AA] in this work. It also gave an interaction score [4] of -1.07, an interaction score [5] of -0.648 and an interaction score [6] of -0.857.

An interaction score [1] of 1.9, an interaction score [2] of -0.666 and an interaction score [3] of -0.232 were found for DENAALEAENAALKAKIAALKAEIAALEG [4H1257-AA] in this work. The interaction score [4] was -0.883, the interaction score [5] was -1.14 and the interaction score [7] was -0.973. For the same binder, the interaction score [6] was -1.91, the interaction score [8] was -0.953 and the interaction score [9] was -1.24. It also gave an interaction score [10] of -1.67.

An interaction score [11] of -1.12, an interaction score [12] of -1.25 and an interaction score [13] of -1.76 were found for DKIAALEAEIAALKAKNAALEAKIAALEG [4H2165-AA] in this work. The interaction score [14] was -0.392, the interaction score [15] was -1.49 and the interaction score [16] was 0.223. The interaction score [17] was -0.0505, the interaction score [18] was -1.5 and the interaction score [19] was 1.73. The interaction score [20] was -1.37, the interaction score [21] was -0.571 and the interaction score [22] was -1.31. For the same binder, the interaction score [23] was -1.4 and the interaction score [24] was 0.00404.

An interaction score [25] of 1.63, an interaction score [26] of -0.845 and an interaction score [27] of -1.39 were found for DENAALKAEIAALKAENAALKAEIAALKG [4H1626-AA] in this work. For the same binder, the interaction score [28] was -1.49 and the interaction score [29] was -1.43.

An interaction score [30] of -1.31, an interaction score [31] of -1.65 and an interaction score [32] of 0.545 were found for DENAALEAEIAALKAKNAALEAKIAALKG [4H1142-AA] in this work. The interaction score [33] was -0.804, the interaction score [34] was -1.39 and the interaction score ([25]; mean of both orientations) was -0.818. It also gave an interaction score [35] of 0.966, an interaction score [26] of 1.48 and an interaction score [27] of 0.00334. The interaction score [36] was -0.868.

An interaction score [12] of -2.02 and an interaction score [15] of -1.68 were found for DKIAALEAENAALKAEIAALKAKIAALEG [4H2253-AA] in this work.

An interaction score [35] of -1.25, an interaction score [36] of -1.04 and an interaction score [7] of -1.9 were found for DENAALKAKIAALEAKNAALEAKIAALEG [4H1845-AA] in this work. The interaction score [8] was -1.18, the interaction score [9] was -1.51 and the interaction score ([10]; mean of both orientations) was -1.57.
